test: yeast display, Sf9 membrane polyspecificity reagent, FACS + sequencing; frameworks hold sequencing errors
Summary of the method: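 Galactose induction of a Saccharomyces cerevisiae BJ5465 synthetic nanobody display library ran 36–48 hours. The cells were then stained for 1 hour at 4 °C with 10% biotinylated, detergent-solubilized Sf9 membrane reagent, pulled down on streptavidin microbeads and FACS-sorted into low and high (top ~1%) gates on expression and reagent-binding fluorescence. Labels for polyreactivity follow the gate of origin.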

| Sequence | polyreactivity (PSR sort gate) |
| --- | --- |
| QVQLVESGGGLVQAGGSLRLSCAASGYTFVGYAMGWYRQAPGKERELVAAITNGGNTNYADSVKGRFTISRDNAKNTVYLQMNSLKPEDTAVYYCATRHSRRYSWIKYYGIGYDYWGQGTQVTVSS | high polyreactivity |
| QVQLVESGGGLVQAGGSLRLSCAASGRIFGRYAMGWYRQAPGKEWELVAAISNGGTTTYADSVKGRFTLSRDNAKNTVYLQMNSLKPEDTAVYYCADDWSYKIYVIQRWYGVDYWGQGTQVTVSS | low polyreactivity |
| QVQLVESGGGLVQAGGSLRLSCAASGFTFEVYAMGWYIQAPGKERELVAAITSSGGRTYYADSVKGRFTISRDNAKNTVYLQMNSLKPEDTAVYYCNARSKQPVYPYVQSLNYWGQGTQVTVSS | high polyreactivity |
| QVQLVESGGGLVQAVGSLRLSCAASGIIFDSYAMGWYRQAPGKERELVAAITSRGGRTYYADSVKGRFTISRDNAKNTVYLQMNSLKPEDTAVYYCAADDGWIEPVYGYYEHEYWGQGTQVTVSS | low polyreactivity |
| QDQLVDSGGGIVQAGGILSYSCDPSGSNVRYNAMGWYRQAPGKERELVAGIRGSGGITYYADSVKGRFTISRDNAKNTVYLQMNSLKPEDSAVYYCAADVVVCSYQEDHSWGQGTQVTESS | low polyreactivity |
| QVQLVESGGVLLQAGGSLRLSCAASGRIFTLYDRGWYRQAPGKEREMDAAISNSAGSTYYADSVKGRFTISRDNAKNTVYLQMNSLKPEDTAGYYCARSYSYWGYRSVYYWGQGTQVTVSS | high polyreactivity |
| QVQLVESGGGLVQAGGSLRLSCAASGSIFGYYAMGWYRQAPGKERELVAAISTSGGRTYYADSVKGRFTISRDNAKNTVYFQMNSLKPEDTAVYYCAARVYSTSVVAYYYWGQGTQVTVSS | high polyreactivity |
| KVQVVESGGGFVQAGGSLGLSCAASGRIFGVYAMGWYTQAPGKERELVAAINYSGTRTYYADSVKGRFTISRDNGKNTVYLQMNSLKPEDSAVYYCGARRGSYSVTEYWGQGTQVNVSS | high polyreactivity |
| QVQLVESGGGLVQAGGSLRLSCAASGSTFYTYTMGWYRQAPGKERALVAAISSSGGDTYYADSVKGRFTISRDNAKNTVYLQMNSLKPEDTAVYYCAALGAFPSLEFDYWGQGTQVTVSS | low polyreactivity |
| QVQLVESGGGLVQAGGSLRLSCAASGLTFSYYAMGWYRQAPGKERELVAAIDYSGGTTYADSVKGRFTISRDNAKNTVYLQMNSLKPEDTAVYYCAREWYQYSPYHRFDYWGQGTQVTVSS | high polyreactivity |
| QVQLVESGGGLVQAGGSLRLSCAASGSIFWQNTMGWYRQAPGKERELVATISSGDSTYYADSVKGRFTISRDNAKNTVYLQMNSLKPEDTAVYYCNTTEHKYVSSFEYGYWGQGTQVTVSS | low polyreactivity |
| QVQLVESGGGLVQAGGSLRLSCAASGSIFQWYAMGWYRQAPGQERELFAAITWSGDTTYYADSVKGRFTISRDNAKNTVYLQMNRLKPEDTAVYYCAADTQDRTYYGWRQVGGYDYWGQGTQVTVSS | low polyreactivity |
| QVQLVESGGGLVQAGGSLRLSCAASGRTFGSNAMGWYRQAPGKERQLVAAITRRGGSTYYADSVKGRFTISRDNAKNTVYLQMNSLKPEDTAVYDCATDPVSTRGSDYWGQGTQVTVSS | low polyreactivity |
| QVQLVESGGGLVQAGGSLRLSCAASGSIYGYTMGWYRQAPGKERELVAAINRRADRTYYADSVKGRFTISRDNAKNTVYLQMNSLKPEDTAVYYCNKGGWYTLGYCGQGTQVTVSS | high polyreactivity |
| QVQLVESGGGLVQAGGSLRLSCASSGFTFGVYAMGWYRTAPGKERELVAGITRGGSTNYADSVKGRFTISRDNAKNTVYLQMNSLKPEDTAVYYCAKVSYGYLRSWGRYTRGDYWGQGTQVTVSS | high polyreactivity |
| QVQLVESGGGLVQAGGSLRLSCSASGRTFYEYAMGWYIQAPGKERELVAGITSGGSTNYADSVKGRFTISRDNAKNTVYLQMNSLKPEDTAVYYCAATYWGYEYDYWGQGTQVTVSS | low polyreactivity |
| QVQLVESGGGLVQAGGSLRLSSAASGRTFYLNAMGWYRQAPGKERELVAAIRISGGSTYYADSVKGRFTISRDNAKNTVYLQMKSLKPEDTAVYYCIAGPYHALSPTVSEYGYWGQGSQVTVSS | low polyreactivity |
| QVQLVESGGGLVQAGGSLRLSCAASGSIYDYNAMGWYRQAPGKERELVAAISASGGSTYYADSVKGRFTISRDNAKNTVYLQMNSLKPEDTAVYYCAAGYWSYWSLRMDYWGQGTQVTVSS | high polyreactivity |
| QVQLVESGGGLVQAGGSLRLSCAASGRTFNRNAMGWYRPAPGKERELVAAISWGGSRTYYADSVKGRFTISRDNAKNTVYLQMNSLKPEDTAVYYCAVDGFRGRSHGANDYWGQGTQVTVSS | high polyreactivity |
| QVQLVETGGGLVQAGGSLRLSCAASGRTYVYNAMGWYRQAPGKERELVAAIDGGGDRTYYADSVKGRFTISRDNAKNTVYLQMNSLKPEDTAVYYCARDPGDTYYYSYQEGDYWGQGTQVTVSS | low polyreactivity |
| QVQLVESGGGLVQAGGSLRLSCAASGSIFRNYAMGWYRQAPGKERELVAAISYRGGSTYYADSVKGRFTISRDNAKNTVYLQMNSLKPEDTAVYYCAARTRKAYYYWGQGTQVTVSS | high polyreactivity |
| QVQLVESGGGLVQAGGSLRLSCAASGAMGWYRQAPGKERELVAGITSGGSTNYADSVKGRFTISRDNAKNTVYLQMNSLKPEDTAVYDCNAVGGPRWLSVGWPYDYWGQGTQVTVSS | low polyreactivity |
| QVQLVESGGGLVQAGGSLRLSCAASGYIFDYYAMGWYRQAPGKERELVAGISRRGGSTYYADSVKGRFTISRDNAKNTVYLQMNSLKPEDTAVYYCAGLGDDATSYGYWGQGTQVTVSS | high polyreactivity |
| QVQLVESGGGLVQAGGSLRLSCAASGLTFYYNAMGSYRQAPGKERELVAAISRSAGSTYYADSVKGRFTISRDNAKNTVYLQMHSLKPEDTAVYYCAVGYVYTRKGRVQPVKYDYWGQGTQVTVSS | high polyreactivity |
| QVQLVESGGGLVQAGGSLRLSCAASGIIFDYYAMGWYRQAPGKERELVATITSGGSTNYADSVKGRFTISRDNAKNTVYLQMNSLKPEDTAVYYCAKEYFATWLIPKYDYWGQGTQVTVSS | low polyreactivity |
| QVQLVESGVGLVQAGGSLRLSCAASGITFYGYAMGWYRQAPGKDRELVAAINWGGTGTYYADSVKGRFTISRDNAKNTVYFQMNSLKPEDTAVYYCNKAGDPIADPTAGKRQFDYWGQGTQVTVSS | low polyreactivity |
| QVQLVESGGGLVQAGGSLRLSCAASGRIFAHYAMGWYRQAPGKEMELFATISLSVGSTYYADSVKGRFTISRDNAKNTVYLQMNSLKPEDTSVYYCNATGYYATSHITYDYWGQVTQVTVSS | low polyreactivity |
| QVQLVESGGGLVQAGGSLRLSCAASGSTFIVYAMGWYRQAPGKERELVASITWRGGSTYYADSVKGRFTISRDNAKNTVYFQMNSLKPEDTAVYYCARGYETTNYQKFYITDDGDYWGQGTQVTVSS | low polyreactivity |
| QVQLVESGGGLVQAGGSLRLSCAASGSTLHEYAMGWYRQAPGKARELVAAISRGGGNTNYADSVKGRFTISRDNAKNTVYLQMNSLIPEDTAVYYCNARHGKIIFYLERYDYWGQGTQVTVSS | low polyreactivity |
| QVQLVESVGGLVQAGGSLRLICAASGSIFVPNTMGWYRQAPGKERELVAAINISGGNTYYADSVKGRFTISRDNAKNTVYLQMNSLKPEDTAVYYCAAVWFKVWSFAGDWGQGTQVTVSS | low polyreactivity |

From the nanobody polyreactivity screen of Harvey et al. (2022)
